Reference: publication PMC11993684, “Fibromodulin selectively accelerates myofibroblast apoptosis in cutaneous wounds by enhancing interleukin 1β signaling” (Nature Communications, 2025)

T1: recombinant human fibromodulin (FMOD) with C-terminal His-tag (human, UniProt Q06828 19-376)
T1 chain: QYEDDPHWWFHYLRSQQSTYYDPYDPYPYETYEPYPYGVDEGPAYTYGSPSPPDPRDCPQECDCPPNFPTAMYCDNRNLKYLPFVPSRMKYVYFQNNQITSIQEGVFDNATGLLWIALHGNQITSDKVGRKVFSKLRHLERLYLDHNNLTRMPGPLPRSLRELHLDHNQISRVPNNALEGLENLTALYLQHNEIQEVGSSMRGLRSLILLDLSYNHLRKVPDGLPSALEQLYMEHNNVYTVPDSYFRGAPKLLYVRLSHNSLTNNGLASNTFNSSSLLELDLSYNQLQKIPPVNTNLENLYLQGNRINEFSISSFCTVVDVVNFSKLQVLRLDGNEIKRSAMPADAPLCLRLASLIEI

B1: recombinant IL1R1 (R&D Systems 269-1R-100/CF) (receptor, human, UniProt P14778 18-336, looked up)
chain: LEADKCKEREEKIILVSSANEIDVRPCPLNPNEHKGTITWYKDDSKTPVSTEQASRIHQHKEKLWFVPAKVEDSGHYYCVVRNSSYCLRIKISAKFVENEPNLCYNAQAIFKQKLPVAGDGGLVCPYMEFFKNENNELPKLQWYKDCKPLLLDNIHFSGVKDRLIVMNVAEKHRGNYTCHASYTYLGKQYPITRVIEFITLEENKPTRPVIVSPANETMEVDLGSQIQLICNVTGQLSDIAYWKWNGSVIDEDDPVLGEDYYSVENPANKRRSTLITVLNISEIESRFYKHPFTCFAKNTHGIDAAYIQLIYPVTNFQK
notes: interleukin 1 receptor type 1, recombinant, His-tag-free, 55 kDa on SDS-PAGE, carrier-free; also called interleukin 1 receptor type 1; source: bought: R&D Systems (carrier-free)
B2: recombinant human fibromodulin (FMOD) with C-terminal His-tag (natural protein, UniProt Q06828 19-376, looked up)
chain: T1 chain
notes: fibromodulin, human; cDNA of a human FMOD transcript (NM_002023) subcloned into pSecTag2A; secreted into the culture supernatant of CHO-K1 cells; Proteoglycan made in CHO cells; also called His-tagged FMOD; not shown: His-tag, C-terminal, kept

What was measured:
[1] = molecular target: B2; assay: SPR; Biacore 3000; FMOD immobilised on CM5 chip by amine coupling; IL1R1 or IL1RAP in HBS-EP pH 7.4 (0.15 M NaCl, 10 mM HEPES, 3 mM EDTA, 0.005% polysorbate 20), 50 μL/minute; double referencing; Scrubber 2.0; conditions: both partners purified
[2] = molecular target: T1, recombinant human fibromodulin (FMOD) …; assay: SPR
[3] = molecular target: T2, IL1β-IL1R1-IL1RAP ternary complex formed in vitro from recombinant proteins (human, UniProt P01584 117-269; P14778 18-336; Q9NPH3 21-367); assay: pull-down; Pierce His Protein Interaction Pull-Down Kit; 150 μg His-tagged FMOD immobilised as bait; His-tag-free 100 μg IL1β, 100 μg IL1R1, 100 μg IL1RAP, or the complex formed beforehand (100 μg IL1β, 50 μg IL1R1, 50 μg IL1RAP, 4 °C overnight) as prey; eluate by SDS-PAGE and Western blotting; conditions: both partners purified
T2 construct: interleukin 1 beta, human, recombinant, His-tag-free, 17 kDa on SDS-PAGE; as m2; interleukin 1 receptor type 1, recombinant, His-tag-free, 55 kDa on SDS-PAGE; as m3; interleukin 1 receptor accessory protein, recombinant, His-tag-free, 70-75 kDa on SDS-PAGE; as m4; See the notes of m3 and m4 on the bought constructs; also called IL1β-IL1R1-IL1RAP complex; IL1β-IL1R1-ILRAP ternary complex; source: …

B1
Kd [1]: 430 nM | koff [2]: 0.02 s⁻¹

B2
binding result [3]: binds
